These results are taken from patent publication US20170218087A1.

This test concerns the target cell surface TrkA on the human erythroleukemic cell line TF-1 (human), P04629. Briefly: cell-based or functional assay.

cell surface TrkA on the human erythroleukemic cell line TF-1 (human), P04629, sequence (P04629 33-796): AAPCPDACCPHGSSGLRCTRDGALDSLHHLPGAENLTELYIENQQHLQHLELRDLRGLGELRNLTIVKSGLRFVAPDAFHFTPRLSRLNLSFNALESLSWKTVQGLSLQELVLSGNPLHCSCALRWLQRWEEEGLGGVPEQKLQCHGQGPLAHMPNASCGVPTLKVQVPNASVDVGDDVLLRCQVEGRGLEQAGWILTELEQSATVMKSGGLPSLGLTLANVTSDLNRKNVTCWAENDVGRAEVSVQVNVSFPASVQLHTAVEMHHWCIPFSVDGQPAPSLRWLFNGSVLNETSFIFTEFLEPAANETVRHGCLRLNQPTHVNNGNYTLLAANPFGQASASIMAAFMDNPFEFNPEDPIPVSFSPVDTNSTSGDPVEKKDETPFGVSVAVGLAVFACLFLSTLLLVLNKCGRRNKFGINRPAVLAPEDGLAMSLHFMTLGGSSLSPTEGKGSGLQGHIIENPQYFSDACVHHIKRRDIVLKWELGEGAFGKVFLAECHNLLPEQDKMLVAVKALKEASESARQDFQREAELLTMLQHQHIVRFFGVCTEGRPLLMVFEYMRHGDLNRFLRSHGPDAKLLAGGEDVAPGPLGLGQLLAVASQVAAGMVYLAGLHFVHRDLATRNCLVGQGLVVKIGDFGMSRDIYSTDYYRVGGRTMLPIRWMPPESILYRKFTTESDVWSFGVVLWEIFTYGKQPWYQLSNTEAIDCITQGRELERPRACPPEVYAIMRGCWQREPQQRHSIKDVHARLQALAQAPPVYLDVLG

B1: MNAC13 mouse antibody (antibody, mouse IgG1, kappa)
heavy: EVKLVESGGGLVQPGGSLKLSCAASGFTFSTYTMSWARQTPEKRLEWVAYISKGGGSTYYPDTVKGRFTISRDNAKNTLYLQMSSLKSEDTALYYCARGAMYGNDFFYPMDYWGQGTSVTVSSKTTPPSVYPLAPGSAAQTNSMVTLGCLVKGYFPEPVTVTWNSGSLSSGVHTFPAVLESDLYTLSSSVTVPSSPRPSETVTCNVAHPASSTKVDKKIVPRDCGCKPCICTVPEVSSVFIFPPKPKDVLTITLTPKVTCVVVDISKDDPEVQFSWFVDDVEVHTAQTQPREEQFNSTFRSVSELPIMHQDWLNGKEFKCRVNSAAFPAPIEKTISKTKGRPKAPQVYTIPPPKEQMAKDKVSLTCMITDFFPEDITVEWQWNGQPAENYKNTQPIMNTNGSYFVYSKLNVQKSNWEAGNTFTCSVLHEGLHNHHTEKSLSHSPGK
light: QIVLTQSPAIMSASLGEEITLTCSASSSVSYMHWYQQKSGTSPKLLIYTTSNLASGVPSRFSGSGSGTFYSLTISSVEAEDAADYYCHQWSSYPWTFGGGTKLEIKADAAPTVSIFPPSSEQLTSGGASVVCFLNNFYPKDINVKWKIDGSERQNGVLNSWTDQDSKDSTYSMSSTLTLTKDEYERHNSYTCEATHKTSTSPIVKSFNRNEC
In turn, B1 gave a TF-1 cell proliferation assay IC50 (NGF-induced) of 0.23 µg/mL.
